The target of assay [1] is isolated native HIV-1 cores (HIV-1). The assay is described as follows: pull-down.
For assay [2] the target is unchanged. The assay is described as follows: pull-down. The source holds these as a separate data set.
Assay [3] concerns the target WT CA nanotubes (pre-formed tubular assemblies of wild-type HIV-1 CA, hexameric lattices) (HIV-1). The assay can be described thus: co-sedimentation; recombinant GST proteins added to pre-formed WT CA nanotubes, 30 min at 4 °C, 21,000 g for 5 min, pellets washed three times; SDS-PAGE or immunoblot. As to conditions: scale: GST-CPSF6(LCR-FG-LCR) molecules per CA hexamer. (Immunoblotting shows a protein as a band on a membrane.)

The target in assay [4] is Cross-linked His-CAhex: disulfide-stabilized hexamer of 6-His-CA(A14C/E45C/W184A/M185A) (HIV-1). The assay is described as follows: SPR; Reichert 4-SPR; cross-linked His-CAhex immobilised on an NTA chip via the C-terminal His-tag; peptides 3.9 μM to 2 mM; 0.01 M HEPES pH 7.4, 0.15 M NaCl, 0.05% v/v Surfactant P20; simple kinetic model. Background: SPR reads the build-up and loss of mass on a sensor chip optically.

Like-named read-outs stand apart in the source and are kept apart here.

As usually defined, the Kd is the concentration at which binding is half-saturated. The term stoichiometry N denotes the number of molecules, sites or subunits per partner or assembly.

As to “GST-CPSF6261-358(LCR-FG-LCR) (domain or fragment)”, the Kd in assay [1] was 890 nM; in assay [2], 810 nM.

“GST-CPSF6_(261-358)(LCR-FG-LCR) (from UniProt Q16630-2 261-358) (domain or fragment)”: the stoichiometry N in assay [3] amounted to 2.4.

“NUP153_(1409-1423) 15-mer FG peptide (from UniProt P49790 1409-1423)” yielded a Kd in assay [4] of 131000 nM.

The record behind these values is PMC9537594.
